Patent publication US6803203B1, “DNA-PK assay” (Brookhaven Science Associates, priority 1993, dated 2004)

Experiments:
DNA-PK [1] = target: T1, DNA-PK (Homo sapiens, UniProt P78527); test: Phosphorylation of mouse p53 by DNA-PK as a function of DNA concentration; type: biochemical; conditions: calf thymus DNA 100 μg/ml
T1 construct: DNA-PK was purified from HeLa cells; endogenous in cells; host or cells: HeLa S3 cells; the endogenous enzyme was purified in house by chromatography
Procedure: To determine whether DNA binding affected p53 phosphorylation by DNA-PK, the rate of phosphorylation of recombinant wild-type mouse p53 was measured as a function of DNA concentration. At low calf thymus DNA concentrations (0 to approximately 10 μg/ml), the initial rate of p53 phosphorylation increased sharply but then decreased as the DNA concentration was further increased. At DNA concentrations of 100 μg/ml, the rate of p53 phosphorylation fell to approximately 25% of the rate at 5 μg/ml. A similar dependence of phosphorylation rate on calf thymus DNA concentration was observed using SV40 TAg or the human Oct-1 POU domain as substrates.

DNA-PK [2] = target: T1, DNA-PK; test: Phosphorylation of recombinant protein substrates by purified DNA-PK (SDS-PAGE, phosphorimage); type: biochemical
Procedure: The recombinant protein substrates, a total of six, (at approximately 0.1 mg/ml final concentration) were separately mixed with hsp90 in a phosphorylation reaction with purified DNA-PK (0.6 pg, 0.02 units/assay) without (−) or with (+) 5 μg/ml calf thymus DNA, in the presence of ^32P-ATP for 30 minutes at 30° C. as described by Lees-Miller, et al., Mol. Cell. Biol., 12:5041-5049 (1992). The phosphorylation reactions were stopped with SDS sample buffer and analyzed with SDS-PAGE. The gel was fixed, stained with Coomassie brilliant blue, dried and developed by autoradiographic procedures. The results of which can be seen in FIG. 9.

Row | Molecule | rate of p53 phosphorylation relative to the rate at 5 μg/ml DNA (DNA-PK [1]) | increase in phosphate incorporation by addition of double stranded DNA (DNA-PK [2]; 5 μg/ml calf thymus DNA compared to no addition of DNA, 30 minutes at 30° C.) [fold] | phosphorylation by purified DNA-PK (in words) (DNA-PK [2]; DNA-dependent, compared with hsp90)
1 | recombinant wild-type mouse p53: wild-type mouse p53 purified from Sf9 insect cells infected with recombinant virus NPVp53 (protein, UniProt P02340 1-390, looked up) Cellular tumor antigen p53: MTAMEESQSDISLELPLSQETFSGLWKLLPPEDILPSPHCMDDLLLPQDVEEFFEGPSEALRVSGAPAAQDPVTETPGPVAPAPATPWPLSSFVPSQKTYQGNYGFHLGFLQSGTAKSVMCTYSPPLNKLFCQLAKTCPVQLWVSATPPAGSRVRAMAIYKKSQHMTEVVRRCPHHERCSDGDGLAPPQHLIRVEGNLYPEYLEDRQTFRHSVVVPYEPPEAGSEYTTIHYKYMCNSSCMGGMNRRPILTIITLEDSSGNLLGRDSFEVRVCACPGRDRRTEEENFRKKEVLCPELPPGSAKRALPTCTSASPPQKKKPLDGEYFTLKIRGRKRFEMFRELNEALELKDAHATEESGDSRAHSSYLKTKKGQSTSRHKKTMVKKVGPDSD | approximately 25% |  | 
2 | substrate 1: wild-type recombinant substrate: Ser Gln Glu DNA-PK site and wild-type Oct-1 POU domain; product of p349SUB1 (protein, POUSUB1 artificial DNA-PK substrate, wild-type recombinant substrate: Ser Gln Glu DNA-PK site and wild-type Oct-1 POU domain; product of p349SUB1) MPEESQETFEDLWKLLPGHHHHHHGMSGGMEEPSDLEELEQFAKTFKQRRIKLGFTQGDVGLAMGKLYGNDFSQTTISRFEALNLSFKNMCKLKPLLEKWLNDAENLSSDSSLSSPSALNSPGIEGLSRRRKKRTSIETNIRVALEKSFLENQKPTSEEITMIADQLNMEKEVIRVWFCNRRQKEKRINPQPELAPEDPED |  | 20 | equal to, if not better than, hsp90
